Source: article PMC6007000 (Nature genetics, 2017)
Non-standard residues stand in square brackets, D forms with d. Residues, ends and D or L forms follow the SMILES beside them. No end group written: not given here. Lys(Me3) = C[N+](C)(C)CCCC[C@H](N)C(=O)O

How the values were obtained:
[1] = biological target: BAF45c (residues 254–368), PHD1-2 region of DPF3 (Homo sapiens, UniProt Q92784); assay: Isothermal titration calorimetry of H3 tail peptides with DPF3; format: binding
[2] = biological target: PHD1-2 region of human BAF45c (DPF3), residues 254–368 (human) (UniProt Q92784); assay: ITC
PHD1-2 region of human BAF45c (DPF3), residues 254–368 (human), sequence (Q92784 254-368): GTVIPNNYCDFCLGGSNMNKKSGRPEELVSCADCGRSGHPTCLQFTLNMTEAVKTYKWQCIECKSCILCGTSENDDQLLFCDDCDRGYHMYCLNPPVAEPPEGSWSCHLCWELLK

BAF45c (residues 254–368), PHD1-2 region of DPF3, sequence (Q92784 254-368): as above

| Compound | Kd [2] [µM] | Kd [1] [µM] |
| --- | --- | --- |
| CC(=O)NCCCC[C@H](NC(=O)CNC(=O)CNC(=O)[C@@H](NC(=O)[C@H](CO)NC(=O)[C@H](CCCCN)NC(=O)[C@H](CCCNC(=N)N)NC(=O)[C@H](C)NC(=O)[C@H](CCCNC(=N)N)NC(=O)[C@@H](NC(=O)[C@H](CCC(N)=O)NC(=O)[C@H](CCCC[N+](C)(C)C)NC(=O)[C@@H](NC(=O)[C@H](CCCNC(=N)N)NC(=O)[C@H](C)N)[C@@H](C)O)[C@@H](C)O)[C@@H](C)O)C(=O)N[C@@H](C)C(=O)N1CCC[C@H]1C(=O)N[C@@H](CCCNC(=N)N)C(=O)N[C@@H](CCCCN)C(=O)O [H3K4me3/K14ac] (H-ART[Lys(Me3)]QTRARKSTGGK(Ac)APRK-OH) |  | 115 |
| ARTKQTRARKSTGGK(Ac)APRK [H3K4me0/K14ac] |  | 7.8 |

Second part, led by results:

| Kd [2] [µM] | Compound | Kd [1] [µM] |
| --- | --- | --- |
| 20 | H3K4me1K14Ac peptide (H3 tail, H3K4me1 and H3K14ac) |  |
| 115 | H3K4me3K14Ac peptide (H3 tail, H3K4me3 and H3K14ac) |  |
| 7.8 | H3K14Ac peptide (H3 tail, H3K4me0 and H3K14ac) |  |
